Reference: the supplement of paper PMC9233669
Variants at the floor of the assay were thinned out.

Assays:
biotinyl-Phe-oxazolone = test: self-aminoacylation, catalytic enhancement (BFO) (fold over background); higher = more active; k-Seq, kA / k0A0; sequences stand for … in GGGAAUGGAUCCACAUCUACGAAUUC…UUCACUGCAGACUUGACGAAGCUG
How it was run: (§1)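 Mutagenized RNA pools with a 21-nt variable region (0.43 μM) were reacted with each biotinyl-aminoacyl-oxazolone at 2–1250 μM for 90 minutes at room temperature, in 50 μL HEPES/NaCl/KCl/MgCl2/CaCl2 buffer containing 5% acetonitrile at pH 6.9–7.0. RNA captured on streptavidin was quantified by triplicate qPCR and by Illumina sequencing. The fraction reacted for each sequence was fit to a pseudo-first-order model with bootstrapping, and catalytic enhancement is the median kA divided by the uncatalyzed rate, taken as the low-activity peak of a bimodal Gaussian fit.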

biotinyl-Ile-oxazolone = test: self-aminoacylation, catalytic enhancement (BIO) (fold over background); higher = more active; k-Seq, kA / k0A0; sequences stand for … in GGGAAUGGAUCCACAUCUACGAAUUC…UUCACUGCAGACUUGACGAAGCUG
How it was run: as §1

biotinyl-Met-oxazolone = test: self-aminoacylation, catalytic enhancement (BMO) (fold over background); higher = more active; k-Seq, kA / k0A0; sequences stand for … in GGGAAUGGAUCCACAUCUACGAAUUC…UUCACUGCAGACUUGACGAAGCUG
How it was run: as §1

biotinyl-Val-oxazolone = test: self-aminoacylation, catalytic enhancement (BVO) (fold over background); higher = more active; k-Seq, kA / k0A0; sequences stand for … in GGGAAUGGAUCCACAUCUACGAAUUC…UUCACUGCAGACUUGACGAAGCUG
How it was run: as §1

biotinyl-Leu-oxazolone = test: self-aminoacylation, catalytic enhancement (BLO) (fold over background); higher = more active; k-Seq, kA / k0A0; sequences stand for … in GGGAAUGGAUCCACAUCUACGAAUUC…UUCACUGCAGACUUGACGAAGCUG
How it was run: as §1

biotinyl-Trp-oxazolone = test: self-aminoacylation, catalytic enhancement (BWO) (fold over background); higher = more active; k-Seq, kA / k0A0; sequences stand for … in GGGAAUGGAUCCACAUCUACGAAUUC…UUCACUGCAGACUUGACGAAGCUG
How it was run: as §1

Sequence	self-aminoacylation (biotinyl-Phe-oxazolone)	self-aminoacylation (biotinyl-Ile-oxazolone)	self-aminoacylation (biotinyl-Met-oxazolone)	self-aminoacylation (biotinyl-Val-oxazolone)	self-aminoacylation (biotinyl-Leu-oxazolone)	self-aminoacylation (biotinyl-Trp-oxazolone)
CCACACUUUAAGUAAUCGGUC [Fam1B.1 aminoacylation ribozyme variant]	0.978	0.653	0.632	0.694	0.667	0.677
CCACAGUUCAACCAAUCGGUC [Fam1B.1 aminoacylation ribozyme variant]	6.48	1.28	1.23	1.26	1.51	5.76
CCACAGUUCAAGCAAUCCGUC [Fam1B.1 aminoacylation ribozyme variant]	1.11	1.19	1.13	1.2	1.16	1.04
CCACAGUUCAAGCAAUCGGGC [Fam1B.1 aminoacylation ribozyme variant]	10	2.04	2.81	2.42	2.18	3.13
CCACAGUUCAAGCAAUCGUUC [Fam1B.1 aminoacylation ribozyme variant]	0.594	0.771	0.742	0.845	0.743	0.472
CCACAGUUCAAGCUAUCGGUC [Fam1B.1 aminoacylation ribozyme variant]	0.851	1.21	1.25	1.27	1.1	0.749
CCACAGUUCAAGGAAUCGGUC [Fam1B.1 aminoacylation ribozyme variant]	1.09	1.23	1.12	1.19	1.33	1.18
CCACAGUUCAGGCAAUCGGUC [Fam1B.1 aminoacylation ribozyme variant]	8.63	2.02	1.65	2.27	2.28	2.25
CCACAUCUCAAGCAAUCGGUC [Fam1B.1 aminoacylation ribozyme variant]	1.41	1.3	0.985	1.33	1.19	1.08
CCACAUUGCAAGCAAUCGGUC [Fam1B.1 aminoacylation ribozyme variant]	1.99	1.75	1.67	1.68	1.87	1.58
CCACAUUUCAAGCAAUCGGUG [Fam1B.1 aminoacylation ribozyme variant]	59.1	6.23	8.9	5.89	12.9	9.35
CCACAUUUCAAGCAAUCGUUC [Fam1B.1 aminoacylation ribozyme variant]	1.13	0.94	0.83	1.16	0.798	0.727
CCACAUUUCAAGCAAUUGGUC [Fam1B.1 aminoacylation ribozyme variant]	0.932	1.22	1.17	0.994	0.857	0.656
